Values quoted from earlier work, collected in publication PMC3024536.

Target: CD8αα (Mus musculus) (UniProt P01731)
UniProt P01731, sequence (P01731 28-196): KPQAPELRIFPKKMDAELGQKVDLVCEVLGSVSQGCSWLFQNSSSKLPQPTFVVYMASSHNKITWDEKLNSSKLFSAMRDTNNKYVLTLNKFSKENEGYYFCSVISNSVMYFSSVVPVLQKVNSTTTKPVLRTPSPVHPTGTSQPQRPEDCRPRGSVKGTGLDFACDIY

In the case of “thymus leukaemia antigen (TL) (from UniProt P14432)”, the Kd is listed as 12 µM.
